In the nanobody polyreactivity screen of Harvey et al. (2022):

Experiment: yeast display, Sf9 membrane polyspecificity reagent, FACS + sequencing; frameworks hold sequencing errors
Outline: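 Using colony PCR, genes from sorted yeast display clones were amplified, then sequenced on MiSeq at 2 × 250 and filtered by CDR length. The clones had been stained with 10% biotinylated, detergent-solubilized Sf9 membrane reagent for 1 hour at 4 °C and sorted by FACS into low and high (top ~1%) gates on anti-HA and streptavidin fluorescence. Polyreactivity labels come from the gate of origin.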

Sequence | polyreactivity (PSR sort gate)
QVQLVESGGGLVQAGGSLRLSCAASGFIFPYNAMGWYRQAPGKERELVAGITSSGGGTYYADSVKGRFTISRDNAKNTVYLQMNSLKPEDTAVYYCNKVWSYHLYPYDYWGQGTQVTVSS | high polyreactivity
QVQLVESGGGLVQAGGSLRLSCAASGSTFYANPMGWYRQAPGKERELLAAITSGGSTNYADSVKGRFTISRDNAKITVYLQMISLKPEDTAVYYCATQVNRERHAEDYWGQGTQVTVSS | low polyreactivity
QVQLVESGGGLVQAGGRLRISCAASGSIFEINAMGWYRQAPGKERELVAAITGSGGSTHYADSVKGRFPISRDNAKNTVYLQMNCLKPEDTAVYYCAAVPRYQYGYLGQGTQVTVSS | low polyreactivity
QVQLVESGGGLVQAGGSLRLICAASGSTFTPNDMGWYRQAPGKERELVADISNYADSVKGRFTISRDNAKNTVYLQMNSLKPEDSAVYYCAAEWGGDRYGLYVVSWWYDYWGQGTQVTLSS | low polyreactivity
QVQLVESGGGLVQAGGSLRLSCAASGRIFKYYAMGWYRQAPGKERELVAAITSSGVSTYADSVKGRFTISRDNAKNTVYLQMISLKPEDTAVYYCADDYVREGLGYDYWGQGTQVTVSS | low polyreactivity
QVQLVESGVGLVQAGGSLSLSCAASGRTFAYNAMGWYRQAAGKERELVAAINGDGGSTYYADSVKGRFTISRDNAMNTDYLQMISLKPEDTAVYYCAADLKYDGAYDYWGQGTQVTVSS | high polyreactivity
QVQLLESGGGLVQAGGSLRLSCAASGSIINRYAMGLYRQAPGKERELVAAISWRGGSTYYADSVKGRFTISRDNAKNTVYLQMNSLKPEDTAVYYCNKVSYVKSGYWGQGTQVTVSS | high polyreactivity
QVQLVESGGGLVQAGGSLRLSCAASGRTFGVYAMGWYRQAPGKERELVAAIRWSGGGTYYADSVKGRFTISRDNAKNTVYLQMISLKPEDTAVYYCAATFQNSPYTRYTDMYYWGQGTQVTVSS | low polyreactivity
QVQLVESGGGLVQAGGSLRLSCAASGRIFTYYTMAWYRQAPGKERELVAAISWSGGRTYYADSVKGRFTISRDNAKNTVYLQMNSLKPEDTAVYYCARRRAVRFYYWGQGTQVTVSS | high polyreactivity
QVQLVESGGGLVQAGGSLRLSCAASGYTFTTYAMGWYRQAPGKEREFVASIRWRGGNTYYADSVKGRFTISRDNAKNTVYLQMNSQKREDTAVYYCARRVDYISSKYGYWGQGTQVTVSS | high polyreactivity
QVQLVESGGGLVQAGGSLRLSCAASGGIFWYYTMGWYRQAPGKERELVATLSSGGRTYYADSVKGRFTMSRDNAKNTVYLQMNSLKPEDTAVYYCAAVGWYHDYYWGQGTQVTVSS | high polyreactivity
QVQLVESGGGLVEAGGRLRLSCAAYGRIFYYNGMGCYRQAPGKERELVAAITSGGSTNYADSEKGRFTISRDNAKNNVYLQMKSVKPEDTAVSYCAADYYYYVAGVHFDYWGQGTQVTVSS | low polyreactivity
QVQLVESGGGLVQAGGSLRLSCAASGRTFLWNAMGWYRQAPGKERELVAAISISGGNTNYADSVKGRFTISRDNAKNTVYLQMNSLKPEDTAVYYCNADPRAEPGDWSYEMDYWGQGTQVTVSS | low polyreactivity
QVQLVDSGGGLVQAGGSLRLSCAASGFNFASYALGWYRPAPGKERELVAAISQSGGRTYYADSVKGRFTISRDNANNTVYLQMNSLKPEDTAVYYCAAPSYRYIYYSPGTGLGYWGQGTQVTVSS | high polyreactivity
QVQLVESGGGLVQAGGSLRLSCAASGSIFSQYAMGWYRQAPGTERDFVAAINWSGGRTRYADSVKGRFTISRDNAKNTVYLQMNSLKPEDTAVYYCAKVYSLYSYSGRYDYWGQGTQVTVSS | high polyreactivity
QVQLVESGGGLVQAGGSLRLSCAASGSTFSFNAMGWYRQAPGKERELVAAISRSGGRTYYADSVKGRFTISRDNAKNTVYLQMNSLKPEDTAVYYCNKVWFQRSVQPVEYDYWGQGTQVTVSS | high polyreactivity
QVQHVESGGGLVQAGGSLRLSCAASGRTITNYVMGWYRQSPGKEREFVATITARGGSTNYADSVKGRFTISRDNAKNTVYLQMNSLKPEDTAVYYCAAGRRFTVAYGYFYWGQGTQVTVSS | high polyreactivity
QVQLVESGGGLVQAGGSLRLSCAASARIFIVNAMGWYRQAPGKDREFVAANTSRGGITYYADSVKGRFTISRDNAKNTVYLQMNSLKPEDTAVYYCAAGYITCGSGNWVVTPYDYWGQGTQVTVSS | high polyreactivity
QVQLVESGGGLVQAGGSLRLSCAASGLTFTTYAMGWSRQAPGKERELVAAISRRGSRTYYADSVKGRFTISRDNAKNTVYLQMNSLKPEDTAVYYCNALTGSFKTYSFDYWGQGTQVTVSS | high polyreactivity
QVQLVESGGGLVQAGGSLRLSCAASGRTFYPNTMGWYRQAPGKERELVATITRSGGNTYADSVKGRFTISRDNAKNTVYLQMNSLKPEDTAVYYCNADQRRSYWLVSQRYDYWGQGTQVTVSS | low polyreactivity
QVQLVESGGGLVQAGGSLRLSSAASGSILPYYAMGWYRQAPGKESELVATITSRGGSTYYADSVKGRFTISRDNAKNTVYLQMNSLKPEDTAVYYCAKEYRYYRRRYDYCGQGTQVTVSS | high polyreactivity
QVQLVESGGGLVQAGGSLRLSCAASGSTFSRYVMGWYRQAPGKERELVAAISSTGGSTYYADSVKGRFTISRDNAKNTVYLQMNSLKPEDTAVYYCNTTYSYGVAAARYYYWGQGTQVTVSS | high polyreactivity

Sequence | polyreactivity (PSR sort gate)
QVQLVESGGGLVQAGGSLRLSCAASGFTFWYYAMGWYRQAPGKERELVAAITEDGDSTYYADSVKGRFTISRDNAKNTVYLQMNSLKPEDTAVYYCNTDLTFNGTSGDYDYWGQGSQVTVSS | low polyreactivity
QVQLVESGGGLVQAGGSLRLSCAASGSIFYYYTMGWYRAAPGKERELVAGISRSGDRTYYADSVKGRFTISRDNAKNTVYLQMNSLKPEVTAVYYCATRWSSARMDYWGQGTQVTVSS | high polyreactivity
QVQLVESGGGLVQAGGSLRLSCAASGSNFSPNAMGWYRQAPGKERELVAAIDTRDGTTYYADSVKGRFTISRDNAKNTVYLQMNSLKPEDTAVYYCAAGGPVRYGIATPTGAKRFGYWGQGTQVTVSS | low polyreactivity
QVQLVESGGGLVQAGGSHRLSCAASGRTFGGNVMGWYRPAHWKERELVAAISSTGDRTYYADSVKGRFTISRDNAKNTVYLQMYSLKPEDTAVYYCAARPAYRSSYYWGQGTQVTVSS | high polyreactivity
QVQLVESGGGLVQAGGSLRLSCAASGRIIGSNTMGWYRQAPGKEREFVATISSSGGSTYYADSVKGRFTISRDNAKNTVYLQMNSLKPEDTAVYYCNTRRRYPFRPYPEWRNYYWGHGTQVTVSS | high polyreactivity
QVQLVESGGGLVQAGGSLRLSCAASGRTLQHYAMGWYRQAPGKERELVAGITKNGGSTYYADSVKGRFTISRDNAKNTVYLQMNSLKPEDTAVYYCAKRWGGYSIPLDYDYWGQGTQVTVSS | low polyreactivity
QVQLQESGGGLVQAGGSLRLSCAASGYISDGYVMGWYRQAPGKEREFVATISGGTTAYYADSVKGRFTISRDNAKNTVYLQMNSLKPEDTAVYYCAAETSYYWDYDYWGHGTQVTVSS | high polyreactivity
QVQLVESGGGLVQAGGSLRLSCAASGFTFNYYAMGGYRPAPGKERELVAAISTGGSTYYADSVKGRFTFSRDNAKNTVYLQMISLKPEDTAVYYCNAKPRYRKADRLDYWGQGTQVTVSS | high polyreactivity
QVQLVESAGGLVQAGGSLRLSCAASGSTFQWYAMGWSRQAPGKERELVAAIDSDGGTNYADSVKGRFTISRDNAKNTVYLQMNSLKPEDTAVYYCAVKPFYYGSEFDYWGQGTQVTVSS | low polyreactivity
QVHLVESGGGLVQAGGSLRLSSADTGYTFVNYARGWNRQAPGKERELVAAISDRGGSMYYADAVKGRFTISRDNAKNTVDLQMNSLKPEETAVYYCAAQHTGKYTGTRYFYWGQGTQVTVSS | high polyreactivity
QVQLVESGGGLVQAGGSLRLSCAASGNTFFPYTMGWYRQAPGKERELVAAITWSGVSTYYADSVKGRFTISRDNAKNTVYLQMNSLKPEDTAVYYCAAGPGYVRYPRSGVWYVTLYDYWGQGTQVTVSS | high polyreactivity
QDQLVESGGGLVQAGGSLRLSCAATGSIFGFNTMGWYRQAPGKERELVPTINWRGGRTYYADSVKGRFTISRDNAKNTVYLLMNSLKPEDTAVYYFNTQGLAGQYQEHGYWGQGTQVTVSS | high polyreactivity
QVQLVESGGGLVQAGGSLRLSCAASGFIFHKYVMGWYRQAPGKERELVAAISRSGASTYYADSVKGRFTISRDNAKNTVYFQMNSLKPEDTAVYYCAARYRRRVIATRDYWGQGTQVTVSS | high polyreactivity
QVQLVESGGGLVQAGGSLRLSCAASGRTFYPNAMGWYRQAPGKERELVAAISWSGGSTYYADSVKGRFTISRDNAKNTVYLQMNSLKPEDTAVYYCNARYLYWALSYDYWGQGTQVTVSS | low polyreactivity
QVQLVESGGGLVQAGGSLRLSCDASGRTFAGYAMGWYRQAPGKERELVAAITTSGGRTYYADSVKGRFTISRDNAKNTVYLQMNSLKPEDTAVYDCNVASKGRYARYAAEYGSWGQGTQVTVSS | high polyreactivity
QVQLVESGGGLVQAGGSLRLSCAASGRTFFYYAMGWYRQAPGKERELVAGITKRGGSTYYADSVKGRFTISRDNAKNSVYLQMNSLKPEDSAVYYCAKSFTQSSTDGYWGQGTQVNVSS | high polyreactivity
QVQLVESGGGLVQAGGSLRLSCAASGGIFYPYAMGGYRQAPGKERELVASIDVSDGSTYYADSVKGRFTISRDNAKNTVYLQMNSLKPEDTAVYYCAADRYYKAIDFEGDYWGQGTQVTVSS | low polyreactivity
QVQLVESGGGLVPAGGSLRLSCAASGGTFYTYVMGWSSQAPGKERELGAAIAGSGNTYYADSVKGRFTISRDKAKKTVYLQMNSLKPEDTAVYYCAKVLRMYPSGSWYGYWGQGTQVTVSS | high polyreactivity
QVQLVESGGGLVQAGGSRRLSCAASGSTFRYYAMGWYRQAPGKERELVAAISKRGGSTYYADSVKGRFTISRDNAKNTVYLQMNSLKPEDTAVYYCAAYGSVGLEYWGQGTQVTVSS | high polyreactivity
QVQLVESGGGLVQAGGSLRLSCAASGSIFVSNAMGWYRQAPGKERELVAAISSGGSTNYADSVKGRFTISRDNAKNTVYLQMNSLKPEDTAVYYCAARYYGYAGRFDYWGQGTQVTVSS | low polyreactivity
QVQLVESGGGLVQAGGSLRLSCAASGRTLARTALGWYRQAPGKERELVAAISRRAVRTYYADSVKGRFTISRDNAKNTVYLQMNILKPEDTAVYYCYAASSLPGYDYWGQGTQVTVSS | high polyreactivity
